From article PMC4022731 (PLoS Pathogens, 2014)

Biological target: Flag-tagged HCMV gp68 expressed by recombinant vaccinia virus (human cytomegalovirus, UniProt P16739)
Experiment: co-IP
Settings: one partner purified

Sequence of Flag-tagged HCMV gp68 expressed by recombinant vaccinia virus (P16739 24-345): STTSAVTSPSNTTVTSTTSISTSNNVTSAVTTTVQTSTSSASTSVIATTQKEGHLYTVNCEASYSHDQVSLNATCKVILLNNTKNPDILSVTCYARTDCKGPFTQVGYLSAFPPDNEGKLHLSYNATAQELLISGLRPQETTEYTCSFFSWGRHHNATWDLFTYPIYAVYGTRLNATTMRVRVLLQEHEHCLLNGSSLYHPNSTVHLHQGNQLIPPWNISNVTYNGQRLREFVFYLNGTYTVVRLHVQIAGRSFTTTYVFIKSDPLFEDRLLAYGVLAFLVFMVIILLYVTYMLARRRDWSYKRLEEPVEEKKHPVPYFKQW

B1: palivizumab (antibody, V domains shown)
VH: QVTLRESGPALVKPTQTLTLTCTFSGFSLSTSGMSVGWIRQPPGKALEWLADIWWDDKKDYNPSLKSRLTISKDTSKNQVVLKVTNMDPADTATYYCARSMITNWYFDVWGAGTTVTVSS
VL: DIQMTQSPSTLSASVGDRVTITCKCQLSVGYMHWYQQKPGKAPKLLIYDTSKLASGVPSRFSGSGSGTEFTLTISSLQPDDFATYYCFQGSGYPFTFGGGTKLEIK
notes: also called IgG1 isotype control antibody; source: bought: MedImmune
B1: binds.
